# B1: Speckle-type POZ protein (Homo sapiens), O43791 (parent)
# chain: MSRVPSPPPPAEMSSGPVAESWCYTQIKVVKFSYMWTINNFSFCREEMGEVIKSSTFSSGANDKLKWCLRVNPKGLDEESKDYLSLYLLLVSCPKSEVRAKFKFSILNAKGEETKAMESQRAYRFVQGKDWGFKKFIRRDFLLDEANGLLPDDKLTLFCEVSVVQDSVNISGQNTMNMVKVPECRLADELGGLWENSRFTDCCLCVAGQEFQAHKAILAARSPVFSAMFEHEMEESKKNRVEINDVEPEVFKEMMCFIYTGKAPNLDKMADDLLAAADKYALERLKVMCEDALCSNLSVENAAEILILADLHSADQLKTQAVDFINYHASDVLETSGWKSMVVSHPHLVAEAYRSLASAQCPFLGPPRKRLKQS
# Variants of: B1
# Settings: with brd4_human BRD4, O60885
row,Variant,effect of a mutation on the interaction
1,Y87C,disrupting interaction strength

# Variants of: B1
# Settings: with ncoa3_human NCOA3, Q9Y6Q9
row,Variant,effect of a mutation on the interaction
1,Y87C,disrupting interaction strength

# Variants of: B1
# Settings: with jun_human JUN
row,Variant,effect of a mutation on the interaction
1,Y87C,disrupting interaction strength

# Variants of: B1
# Settings: with akt1_human AKT1, P31749
row,Variant,effect of a mutation on the interaction
1,Y87C,with no effect

# Variants of: B1
# Settings: with alk_human ALK
row,Variant,effect of a mutation on the interaction
1,Y87C,with no effect

# Variants of: B1
# Settings: with aph1a_human APH1A
row,Variant,effect of a mutation on the interaction
1,Y87C,with no effect

# Variants of: B1
# Settings: with arnt_human ARNT
row,Variant,effect of a mutation on the interaction
1,Y87C,with no effect

# Variants of: B1
# Settings: with arc1a_human ARPC1A
row,Variant,effect of a mutation on the interaction
1,Y87C,with no effect

# Variants of: B1
# Settings: with asxl2_human ASXL2, Q76L83
row,Variant,effect of a mutation on the interaction
1,Y87C,with no effect

# Variants of: B1
# Settings: with bakor_human ATG14, Q6ZNE5
row,Variant,effect of a mutation on the interaction
1,Y87C,with no effect

# Variants of: B1
# Settings: with atm_human ATM
row,Variant,effect of a mutation on the interaction
1,Y87C,with no effect

# Variants of: B1
# Settings: with atpb_human ATP5F1B
row,Variant,effect of a mutation on the interaction
1,Y87C,with no effect

# Variants of: B1
# Settings: with aurkb_human AURKB
row,Variant,effect of a mutation on the interaction
1,Y87C,with no effect

# Variants of: B1
# Settings: with axin2_human AXIN2, Q9Y2T1
row,Variant,effect of a mutation on the interaction
1,Y87C,with no effect

# Variants of: B1
# Settings: with ufo_human AXL
row,Variant,effect of a mutation on the interaction
1,Y87C,with no effect

# Variants of: B1
# Settings: with za2g_human AZGP1, P25311
row,Variant,effect of a mutation on the interaction
1,Y87C,with no effect

# Variants of: B1
# Settings: with b2mg_human B2M
row,Variant,effect of a mutation on the interaction
1,Y87C,with no effect

# Variants of: B1
# Settings: with bap1_human BAP1, Q92560
# Sequence of bap1_human BAP1, Q92560 (Q92560 whole entry): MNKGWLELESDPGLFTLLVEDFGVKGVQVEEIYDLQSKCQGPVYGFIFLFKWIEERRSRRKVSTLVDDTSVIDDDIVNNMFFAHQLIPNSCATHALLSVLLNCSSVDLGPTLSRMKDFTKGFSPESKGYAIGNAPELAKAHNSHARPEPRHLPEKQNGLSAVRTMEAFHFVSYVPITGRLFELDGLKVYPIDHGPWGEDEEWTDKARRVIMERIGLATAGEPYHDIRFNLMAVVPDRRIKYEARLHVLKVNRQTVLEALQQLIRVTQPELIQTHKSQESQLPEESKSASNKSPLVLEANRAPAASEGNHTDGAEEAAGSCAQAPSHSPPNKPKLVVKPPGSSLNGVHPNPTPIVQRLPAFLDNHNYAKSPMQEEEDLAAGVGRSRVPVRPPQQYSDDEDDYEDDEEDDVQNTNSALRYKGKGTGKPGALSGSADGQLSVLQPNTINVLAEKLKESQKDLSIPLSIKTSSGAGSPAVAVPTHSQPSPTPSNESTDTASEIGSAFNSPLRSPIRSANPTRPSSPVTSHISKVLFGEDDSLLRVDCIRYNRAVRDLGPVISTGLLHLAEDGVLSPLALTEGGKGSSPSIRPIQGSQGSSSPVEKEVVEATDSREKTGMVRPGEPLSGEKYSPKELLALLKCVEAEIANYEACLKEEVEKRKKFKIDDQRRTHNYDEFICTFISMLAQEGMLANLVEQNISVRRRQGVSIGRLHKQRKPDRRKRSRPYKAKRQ
row,Variant,effect of a mutation on the interaction
1,Y87C,with no effect

# Variants of: B1
# Settings: with bcor_human BCOR
row,Variant,effect of a mutation on the interaction
1,Y87C,with no effect

# Variants of: B1
# Settings: with bcorl_human BCORL1, Q5H9F3
row,Variant,effect of a mutation on the interaction
1,Y87C,with no effect

# Variants of: B1
# Settings: with birc2_human BIRC2, Q13490
# Sequence of birc2_human BIRC2, Q13490 (Q13490 whole entry): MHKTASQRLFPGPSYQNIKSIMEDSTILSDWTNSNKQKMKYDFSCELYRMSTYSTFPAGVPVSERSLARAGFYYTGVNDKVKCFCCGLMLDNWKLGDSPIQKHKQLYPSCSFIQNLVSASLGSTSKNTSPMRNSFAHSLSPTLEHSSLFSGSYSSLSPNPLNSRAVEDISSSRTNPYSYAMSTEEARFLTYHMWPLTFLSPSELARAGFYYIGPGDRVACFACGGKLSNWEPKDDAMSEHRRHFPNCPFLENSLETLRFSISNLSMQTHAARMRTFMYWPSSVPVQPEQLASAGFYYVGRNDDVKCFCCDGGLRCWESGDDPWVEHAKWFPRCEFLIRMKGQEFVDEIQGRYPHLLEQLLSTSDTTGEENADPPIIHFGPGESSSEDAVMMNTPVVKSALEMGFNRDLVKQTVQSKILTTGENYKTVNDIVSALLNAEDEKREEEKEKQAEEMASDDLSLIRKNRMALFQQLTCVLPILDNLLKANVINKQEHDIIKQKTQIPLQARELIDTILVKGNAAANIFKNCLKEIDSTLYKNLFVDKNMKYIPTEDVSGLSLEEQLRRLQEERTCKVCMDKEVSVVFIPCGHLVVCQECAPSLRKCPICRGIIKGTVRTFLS
row,Variant,effect of a mutation on the interaction
1,Y87C,with no effect

# Variants of: B1
# Settings: with brd4_human BRD4, O60885
# Remark: another data set of the same source
row,Variant,effect of a mutation on the interaction
1,Y87C,with no effect

# Variants of: B1
# Settings: with baba2_human BABAM2, Q9NXR7
row,Variant,effect of a mutation on the interaction
1,Y87C,with no effect

# Variants of: B1
# Settings: with btg1_human BTG1, P62324
row,Variant,effect of a mutation on the interaction
1,Y87C,with no effect

# Variants of: B1
# Settings: with ccnd1_human CCND1, P24385
row,Variant,effect of a mutation on the interaction
1,Y87C,with no effect

# Variants of: B1
# Settings: with ccnd2_human CCND2, P30279
row,Variant,effect of a mutation on the interaction
1,Y87C,with no effect

# Variants of: B1
# Settings: with ccnd3_human CCND3, P30281
row,Variant,effect of a mutation on the interaction
1,Y87C,with no effect

# Variants of: B1
# Settings: with ccne1_human CCNE1, P24864
# Sequence of ccne1_human CCNE1, P24864 (P24864 whole entry): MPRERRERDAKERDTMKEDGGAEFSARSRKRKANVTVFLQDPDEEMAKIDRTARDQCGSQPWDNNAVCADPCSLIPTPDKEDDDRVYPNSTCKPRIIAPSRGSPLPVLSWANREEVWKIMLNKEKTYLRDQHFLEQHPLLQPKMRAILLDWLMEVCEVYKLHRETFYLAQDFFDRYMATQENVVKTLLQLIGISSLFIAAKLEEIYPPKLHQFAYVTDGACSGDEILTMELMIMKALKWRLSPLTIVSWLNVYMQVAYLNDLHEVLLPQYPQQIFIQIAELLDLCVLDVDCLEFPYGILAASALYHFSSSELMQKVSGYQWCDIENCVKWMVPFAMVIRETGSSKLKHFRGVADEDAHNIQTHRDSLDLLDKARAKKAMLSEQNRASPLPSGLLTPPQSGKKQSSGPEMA
row,Variant,effect of a mutation on the interaction
1,Y87C,with no effect

# Variants of: B1
# Settings: with cd44_human CD44, P16070
# Sequence of cd44_human CD44, P16070 (P16070 whole entry): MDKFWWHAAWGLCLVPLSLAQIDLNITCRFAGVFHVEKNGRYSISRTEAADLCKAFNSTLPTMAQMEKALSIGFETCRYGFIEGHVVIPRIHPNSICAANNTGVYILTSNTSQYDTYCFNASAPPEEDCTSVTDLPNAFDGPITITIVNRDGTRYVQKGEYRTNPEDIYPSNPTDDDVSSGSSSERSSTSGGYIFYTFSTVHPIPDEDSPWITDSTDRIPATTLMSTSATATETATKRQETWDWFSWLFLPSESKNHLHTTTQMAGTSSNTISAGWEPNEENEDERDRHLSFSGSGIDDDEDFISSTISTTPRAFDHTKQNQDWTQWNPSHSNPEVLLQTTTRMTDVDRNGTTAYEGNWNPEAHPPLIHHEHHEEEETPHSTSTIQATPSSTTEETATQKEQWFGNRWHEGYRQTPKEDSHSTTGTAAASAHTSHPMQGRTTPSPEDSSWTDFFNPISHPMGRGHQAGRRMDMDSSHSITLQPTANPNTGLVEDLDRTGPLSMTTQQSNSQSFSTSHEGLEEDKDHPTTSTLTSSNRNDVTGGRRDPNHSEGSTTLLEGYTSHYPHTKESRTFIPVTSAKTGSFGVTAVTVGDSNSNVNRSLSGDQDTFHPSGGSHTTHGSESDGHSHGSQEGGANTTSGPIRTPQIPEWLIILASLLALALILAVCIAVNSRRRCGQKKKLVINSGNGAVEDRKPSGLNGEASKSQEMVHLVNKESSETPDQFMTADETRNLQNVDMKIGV
row,Variant,effect of a mutation on the interaction
1,Y87C,with no effect

# Variants of: B1
# Settings: with cd79b_human CD79B
row,Variant,effect of a mutation on the interaction
1,Y87C,with no effect

# Variants of: B1
# Settings: with cdc27_human CDC27, P30260
row,Variant,effect of a mutation on the interaction
1,Y87C,with no effect

# Variants of: B1
# Settings: with cdc73_human CDC73, Q6P1J9
row,Variant,effect of a mutation on the interaction
1,Y87C,with no effect

# Variants of: B1
# Settings: with cdk4_human CDK4, P11802
row,Variant,effect of a mutation on the interaction
1,Y87C,with no effect

# Variants of: B1
# Settings: with cdk6_human CDK6, Q00534
row,Variant,effect of a mutation on the interaction
1,Y87C,with no effect

# Variants of: B1
# Settings: with cdn2c_human CDKN2C
row,Variant,effect of a mutation on the interaction
1,Y87C,with no effect

# Variants of: B1
# Settings: with chd1l_human CHD1L
row,Variant,effect of a mutation on the interaction
1,Y87C,with no effect

# Variants of: B1
# Settings: with chd2_human CHD2, O14647
row,Variant,effect of a mutation on the interaction
1,Y87C,with no effect

# Variants of: B1
# Settings: with chk2_human CHEK2, O96017
row,Variant,effect of a mutation on the interaction
1,Y87C,with no effect

# Variants of: B1
# Settings: with ch3l1_human CHI3L1, P36222
# Sequence of ch3l1_human CHI3L1, P36222 (P36222 whole entry): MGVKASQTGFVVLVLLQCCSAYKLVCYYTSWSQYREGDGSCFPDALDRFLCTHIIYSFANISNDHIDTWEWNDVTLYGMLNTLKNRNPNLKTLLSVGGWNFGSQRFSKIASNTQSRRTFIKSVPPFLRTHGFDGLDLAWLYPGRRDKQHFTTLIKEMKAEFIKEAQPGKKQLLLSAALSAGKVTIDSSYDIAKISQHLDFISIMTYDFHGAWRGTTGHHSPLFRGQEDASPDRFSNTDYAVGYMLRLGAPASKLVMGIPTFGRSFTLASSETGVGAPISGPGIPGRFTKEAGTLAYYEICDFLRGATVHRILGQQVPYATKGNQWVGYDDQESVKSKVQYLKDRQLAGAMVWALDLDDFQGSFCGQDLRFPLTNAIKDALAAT
row,Variant,effect of a mutation on the interaction
1,Y87C,with no effect

# Variants of: B1
# Settings: with csf1r_human CSF1R
row,Variant,effect of a mutation on the interaction
1,Y87C,with no effect

# Variants of: B1
# Settings: with ctla4_human CTLA4, P16410
row,Variant,effect of a mutation on the interaction
1,Y87C,with no effect

# Variants of: B1
# Settings: with cul3_human CUL3, Q13618
row,Variant,effect of a mutation on the interaction
1,Y87C,with no effect

# Variants of: B1
# Settings: with cul4b_human CUL4B
row,Variant,effect of a mutation on the interaction
1,Y87C,with no effect

# Variants of: B1
# Settings: with daxx_human DAXX
row,Variant,effect of a mutation on the interaction
1,Y87C,with no effect

# Variants of: B1
# Settings: with ddx5_human DDX5, P17844
row,Variant,effect of a mutation on the interaction
1,Y87C,with no effect

# Variants of: B1
# Settings: with dll3_human DLL3, Q9NYJ7
row,Variant,effect of a mutation on the interaction
1,Y87C,with no effect

# Variants of: B1
# Settings: with duox2_human DUOX2, Q9NRD8
row,Variant,effect of a mutation on the interaction
1,Y87C,with no effect

# Variants of: B1
# Settings: with e2f1_human E2F1, Q01094
row,Variant,effect of a mutation on the interaction
1,Y87C,with no effect

# Variants of: B1
# Settings: with e2f2_human E2F2, Q14209
row,Variant,effect of a mutation on the interaction
1,Y87C,with no effect

# Variants of: B1
# Settings: with e2f3_human E2F3, O00716
row,Variant,effect of a mutation on the interaction
1,Y87C,with no effect

# Variants of: B1
# Settings: with e2f5_human E2F5, Q15329
row,Variant,effect of a mutation on the interaction
1,Y87C,with no effect

# Variants of: B1
# Settings: with e2f6_human E2F6, O75461
# Sequence of e2f6_human E2F6, O75461 (O75461 whole entry): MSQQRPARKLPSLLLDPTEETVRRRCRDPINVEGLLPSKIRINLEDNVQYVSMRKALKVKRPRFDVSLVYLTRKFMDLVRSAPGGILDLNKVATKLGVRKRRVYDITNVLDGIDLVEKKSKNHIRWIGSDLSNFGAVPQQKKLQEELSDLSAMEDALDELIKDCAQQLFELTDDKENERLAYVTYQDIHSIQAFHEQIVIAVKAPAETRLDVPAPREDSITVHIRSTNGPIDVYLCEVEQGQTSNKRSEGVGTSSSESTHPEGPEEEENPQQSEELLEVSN
row,Variant,effect of a mutation on the interaction
1,Y87C,with no effect

# Variants of: B1
# Settings: with e2f8_human E2F8, A0AVK6
row,Variant,effect of a mutation on the interaction
1,Y87C,with no effect

# Variants of: B1
# Settings: with if4e_human EIF4E
row,Variant,effect of a mutation on the interaction
1,Y87C,with no effect

# Variants of: B1
# Settings: with epha7_human EPHA7, Q15375
row,Variant,effect of a mutation on the interaction
1,Y87C,with no effect

# Variants of: B1
# Settings: with ephb1_human EPHB1, P54762
row,Variant,effect of a mutation on the interaction
1,Y87C,with no effect

# Variants of: B1
# Settings: with erbb3_human ERBB3, P21860
row,Variant,effect of a mutation on the interaction
1,Y87C,with no effect

# Variants of: B1
# Settings: with erbb4_human ERBB4, Q15303
row,Variant,effect of a mutation on the interaction
1,Y87C,with no effect

# Variants of: B1
# Settings: with esr1_human ESR1, P03372
row,Variant,effect of a mutation on the interaction
1,Y87C,with no effect

# Variants of: B1
# Settings: with etv1_human ETV1, P50549
row,Variant,effect of a mutation on the interaction
1,Y87C,with no effect

# Variants of: B1
# Settings: with ezh1_human EZH1, Q92800
row,Variant,effect of a mutation on the interaction
1,Y87C,with no effect

# Variants of: B1
# Settings: with ezh2_human EZH2, Q15910
row,Variant,effect of a mutation on the interaction
1,Y87C,with no effect

# Variants of: B1
# Settings: with facd2_human FANCD2, Q9BXW9
row,Variant,effect of a mutation on the interaction
1,Y87C,with no effect

# Variants of: B1
# Settings: with tnr6_human FAS
row,Variant,effect of a mutation on the interaction
1,Y87C,with no effect

# Variants of: B1
# Settings: with fgf19_human FGF19, O95750
# Sequence of fgf19_human FGF19, O95750 (O95750 whole entry): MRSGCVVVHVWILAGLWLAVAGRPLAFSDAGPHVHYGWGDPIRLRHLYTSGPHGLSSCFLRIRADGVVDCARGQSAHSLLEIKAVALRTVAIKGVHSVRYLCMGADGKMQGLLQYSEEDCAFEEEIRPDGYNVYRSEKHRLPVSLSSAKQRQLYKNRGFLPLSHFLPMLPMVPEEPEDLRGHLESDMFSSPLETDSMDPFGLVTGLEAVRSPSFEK
row,Variant,effect of a mutation on the interaction
1,Y87C,with no effect

# Variants of: B1
# Settings: with fgfp1_human FGFBP1, Q14512
row,Variant,effect of a mutation on the interaction
1,Y87C,with no effect

# Variants of: B1
# Settings: with fgfr4_human FGFR4, P22455
row,Variant,effect of a mutation on the interaction
1,Y87C,with no effect

# Variants of: B1
# Settings: with fumh_human FH
row,Variant,effect of a mutation on the interaction
1,Y87C,with no effect

# Variants of: B1
# Settings: with foxo3_human FOXO3, O43524
# Sequence of foxo3_human FOXO3, O43524 (O43524 whole entry): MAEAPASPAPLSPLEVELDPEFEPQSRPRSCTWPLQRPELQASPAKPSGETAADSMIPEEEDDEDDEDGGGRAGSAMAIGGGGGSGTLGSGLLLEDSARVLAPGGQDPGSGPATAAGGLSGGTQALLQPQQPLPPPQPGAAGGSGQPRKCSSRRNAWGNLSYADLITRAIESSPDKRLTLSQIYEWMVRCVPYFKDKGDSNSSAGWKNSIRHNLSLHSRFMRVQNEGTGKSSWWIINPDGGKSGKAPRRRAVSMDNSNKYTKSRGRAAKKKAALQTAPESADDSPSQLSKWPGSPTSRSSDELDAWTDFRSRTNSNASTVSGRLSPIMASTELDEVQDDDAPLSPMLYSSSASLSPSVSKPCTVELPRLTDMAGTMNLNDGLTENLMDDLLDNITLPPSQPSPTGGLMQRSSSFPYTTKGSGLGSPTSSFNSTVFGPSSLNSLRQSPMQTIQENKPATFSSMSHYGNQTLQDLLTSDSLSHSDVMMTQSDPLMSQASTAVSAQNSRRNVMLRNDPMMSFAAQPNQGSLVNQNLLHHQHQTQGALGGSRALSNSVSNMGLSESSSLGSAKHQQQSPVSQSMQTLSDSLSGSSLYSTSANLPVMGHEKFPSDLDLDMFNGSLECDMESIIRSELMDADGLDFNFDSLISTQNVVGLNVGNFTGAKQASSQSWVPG
row,Variant,effect of a mutation on the interaction
1,Y87C,with no effect

# Variants of: B1
# Settings: with fzr1_human FZR1, Q9UM11
row,Variant,effect of a mutation on the interaction
1,Y87C,with no effect

# Variants of: B1
# Settings: with gbra6_human GABRA6, Q16445
row,Variant,effect of a mutation on the interaction
1,Y87C,with no effect

# Variants of: B1
# Settings: with gata1_human GATA1, P15976
row,Variant,effect of a mutation on the interaction
1,Y87C,with no effect

# Variants of: B1
# Settings: with p66b_human GATAD2B
row,Variant,effect of a mutation on the interaction
1,Y87C,with no effect

# Variants of: B1
# Settings: with gna11_human GNA11, P29992
row,Variant,effect of a mutation on the interaction
1,Y87C,with no effect

# Variants of: B1
# Settings: with gna13_human GNA13, Q14344
row,Variant,effect of a mutation on the interaction
1,Y87C,with no effect

# Variants of: B1
# Settings: with gnaq_human GNAQ
row,Variant,effect of a mutation on the interaction
1,Y87C,with no effect

# Variants of: B1
# Settings: with grm1_human GRM1, Q13255
row,Variant,effect of a mutation on the interaction
1,Y87C,with no effect

# Variants of: B1
# Settings: with grm3_human GRM3, Q14832
# Sequence of grm3_human GRM3, Q14832 (Q14832 whole entry, looked up): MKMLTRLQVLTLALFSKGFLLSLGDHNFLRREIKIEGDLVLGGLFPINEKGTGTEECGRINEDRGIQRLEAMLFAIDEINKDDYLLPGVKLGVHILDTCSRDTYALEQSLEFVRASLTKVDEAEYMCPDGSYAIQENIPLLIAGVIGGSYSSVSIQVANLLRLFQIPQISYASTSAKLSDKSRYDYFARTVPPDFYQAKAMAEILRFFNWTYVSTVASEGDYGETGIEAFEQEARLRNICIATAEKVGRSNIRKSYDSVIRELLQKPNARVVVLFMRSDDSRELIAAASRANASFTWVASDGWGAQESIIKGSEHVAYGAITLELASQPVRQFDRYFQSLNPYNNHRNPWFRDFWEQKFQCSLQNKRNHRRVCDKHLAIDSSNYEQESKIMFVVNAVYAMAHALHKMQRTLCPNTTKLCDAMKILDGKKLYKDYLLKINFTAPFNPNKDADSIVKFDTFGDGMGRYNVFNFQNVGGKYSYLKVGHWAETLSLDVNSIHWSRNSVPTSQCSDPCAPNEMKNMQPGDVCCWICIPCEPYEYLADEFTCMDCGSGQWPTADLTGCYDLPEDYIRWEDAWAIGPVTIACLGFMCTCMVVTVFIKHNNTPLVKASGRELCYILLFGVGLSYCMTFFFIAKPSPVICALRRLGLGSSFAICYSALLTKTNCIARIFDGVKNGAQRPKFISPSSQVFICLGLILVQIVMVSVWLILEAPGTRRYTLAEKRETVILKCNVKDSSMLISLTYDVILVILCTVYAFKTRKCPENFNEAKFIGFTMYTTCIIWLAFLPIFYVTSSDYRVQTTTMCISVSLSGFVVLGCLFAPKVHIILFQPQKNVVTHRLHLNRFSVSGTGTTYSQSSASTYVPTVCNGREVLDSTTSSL
row,Variant,effect of a mutation on the interaction
1,Y87C,with no effect

# Variants of: B1
# Settings: with gsk3b_human GSK3B
row,Variant,effect of a mutation on the interaction
1,Y87C,with no effect

# Variants of: B1
# Settings: with gtpb4_human GTPBP4, Q9BZE4
row,Variant,effect of a mutation on the interaction
1,Y87C,with no effect

# Variants of: B1
# Settings: with h33_human H3-3A
row,Variant,effect of a mutation on the interaction
1,Y87C,with no effect

# Variants of: B1
# Settings: with hdac1_human HDAC1, Q13547
row,Variant,effect of a mutation on the interaction
1,Y87C,with no effect

# Variants of: B1
# Settings: with hdac3_human HDAC3, O15379
row,Variant,effect of a mutation on the interaction
1,Y87C,with no effect

# Variants of: B1
# Settings: with hgf_human HGF
row,Variant,effect of a mutation on the interaction
1,Y87C,with no effect

# Variants of: B1
# Settings: with h31_human H3C1, P68431
row,Variant,effect of a mutation on the interaction
1,Y87C,with no effect

# Variants of: B1
# Settings: with hlab_human HLA-B
row,Variant,effect of a mutation on the interaction
1,Y87C,with no effect

# Variants of: B1
# Settings: with hnf1a_human HNF1A
row,Variant,effect of a mutation on the interaction
1,Y87C,with no effect

# Variants of: B1
# Settings: with igf1r_human IGF1R
row,Variant,effect of a mutation on the interaction
1,Y87C,with no effect

# Variants of: B1
# Settings: with il7ra_human IL7R
row,Variant,effect of a mutation on the interaction
1,Y87C,with no effect

# Variants of: B1
# Settings: with int12_human INTS12, Q96CB8
row,Variant,effect of a mutation on the interaction
1,Y87C,with no effect

# Variants of: B1
# Settings: with ist1_human IST1, P53990
row,Variant,effect of a mutation on the interaction
1,Y87C,with no effect
